Where a chain is given by its changes, count along the chain named. Where “and” joins values, the source holds several entries; their conditions need not be identical. Equal values may be shown once.
What was measured:
[1] = target: T1, Lag3 on Lag3+ NFAT Jurkat effector cells (Promega #CS194801); assay: cell-based or functional assay
[2] = target: T1, Lag3 on Lag3+ NFAT Jurkat effector …; assay: cell-based or functional assay; remark: listed apart in the source
[3] = target: T2, murine LAG3-Fc antigen (R&D Systems, 3328-L3-050) (murine, UniProt Q61790 24-442); assay: ELISA using murine LAG3-Fc antigen
T2 construct: Bought reagent
T2 sequence (looked up): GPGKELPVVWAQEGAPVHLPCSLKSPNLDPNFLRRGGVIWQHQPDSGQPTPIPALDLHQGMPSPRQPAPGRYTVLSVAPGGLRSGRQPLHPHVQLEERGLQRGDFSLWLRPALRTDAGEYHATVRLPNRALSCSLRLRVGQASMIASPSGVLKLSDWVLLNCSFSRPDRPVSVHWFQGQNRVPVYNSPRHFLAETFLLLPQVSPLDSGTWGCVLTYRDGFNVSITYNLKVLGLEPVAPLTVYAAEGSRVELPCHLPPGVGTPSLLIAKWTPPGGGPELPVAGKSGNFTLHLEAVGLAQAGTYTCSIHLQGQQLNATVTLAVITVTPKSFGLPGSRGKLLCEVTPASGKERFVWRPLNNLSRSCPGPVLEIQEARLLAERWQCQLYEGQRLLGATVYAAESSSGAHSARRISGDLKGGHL

[4] = target: T3, human LAG3 on recombinant CHO cells (human, UniProt P18627 23-525); assay: cell ELISA on CHO cells expressing human LAG3;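 further: bivalent Fc-format binders titrated in threefold steps from 6 µg/mL, incubated with the cells 2 h at 4 °C, bound antibody detected by HRP-coupled anti-human IgG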
T3 construct: whole, on cells; also called Lag3 cells; recombinant CHO cells expressing Lag3
T3 sequence (looked up): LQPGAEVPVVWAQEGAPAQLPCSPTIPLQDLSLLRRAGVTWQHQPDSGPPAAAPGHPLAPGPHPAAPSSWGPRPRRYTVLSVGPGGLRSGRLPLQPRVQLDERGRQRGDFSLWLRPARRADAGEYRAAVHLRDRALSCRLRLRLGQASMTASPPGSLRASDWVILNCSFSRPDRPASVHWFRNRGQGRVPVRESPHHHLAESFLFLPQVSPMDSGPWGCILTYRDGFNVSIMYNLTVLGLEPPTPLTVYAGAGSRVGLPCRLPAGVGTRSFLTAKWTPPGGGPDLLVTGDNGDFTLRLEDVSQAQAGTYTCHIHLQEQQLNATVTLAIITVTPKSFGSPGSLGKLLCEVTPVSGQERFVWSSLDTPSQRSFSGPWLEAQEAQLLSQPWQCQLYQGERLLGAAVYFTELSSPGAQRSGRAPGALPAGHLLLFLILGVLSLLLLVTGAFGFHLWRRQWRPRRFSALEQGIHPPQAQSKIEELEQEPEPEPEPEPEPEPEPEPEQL

[5] = target: T4, recombinant human LAG3 Fc Chimera Protein (R&D Systems, 2319-L3) (human, UniProt P18627 23-450); assay: ELISA, plate coated with human LAG3 Fc chimera
T4 construct: Bought reagent
T4 sequence (looked up): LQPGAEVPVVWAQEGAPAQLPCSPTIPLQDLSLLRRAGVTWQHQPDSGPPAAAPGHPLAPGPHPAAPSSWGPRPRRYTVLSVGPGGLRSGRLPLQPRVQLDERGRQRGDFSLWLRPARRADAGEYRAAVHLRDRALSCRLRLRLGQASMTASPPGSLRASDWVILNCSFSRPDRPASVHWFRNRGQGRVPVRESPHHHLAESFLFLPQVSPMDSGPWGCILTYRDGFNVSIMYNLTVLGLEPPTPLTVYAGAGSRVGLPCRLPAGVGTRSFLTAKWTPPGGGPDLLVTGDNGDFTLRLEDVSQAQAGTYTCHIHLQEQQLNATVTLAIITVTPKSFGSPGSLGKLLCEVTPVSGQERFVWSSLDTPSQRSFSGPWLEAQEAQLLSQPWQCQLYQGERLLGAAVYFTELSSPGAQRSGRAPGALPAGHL

[6] = target: T5, Lag3 on cynomolgus PBMC/T cells (cynomolgus); assay: flow cytometry, non-activated cynomolgus PBMC, 10 µg/ml
T5 construct: whole, on cells

[7] = target: T5, Lag3 on cynomolgus PBMC/T cells; assay: flow cytometry, CD3/CD28-activated cynomolgus PBMC, 10 µg/ml
[8] = target: T4, recombinant human LAG3 Fc Chimera …; assay: SPR (Biacore), aVH-Fc captured by anti-human Fc, human LAG-3 Fc chimera as analyte, 25 C
[9] = target: T6, soluble human Lag3-IgG1-Fc with biotinylated C-terminal Avi-tag (human, biotin on the C-terminal Avi-tag); assay: A375 MHCII competition ELISA, biotinylated Lag3 250 ng/ml; competitor MHCII on A375 cells
T6 construct: also called LAG3-Fc-avi; biotinylated LAG3-Fc antigen

[10] = target: T6, soluble human Lag3-IgG1-Fc with …; assay: A375 MHCII competition ELISA at 3 µg/ml, biotinylated Lag3 250 ng/ml; competitor MHCII on A375 cells
[11] = target: T7, cynomolgus LAG3 on transiently transfected HEK293F cells (cynomolgus); assay: flow cytometry on HEK293F cells transfected with cyno LAG3, 10 µg/ml
T7 construct: whole, on cells; also called cyno LAG3; cynomolgus Lag3-positive HEK cells

[12] = target: T8, biotinylated DR5-Fc-avi (extracellular domain of Death receptor 5, amino acids 1 to 152, fused to human IgG1 … (biotin on the C-terminal avi-tag)); assay: ELISA, biotinylated DR5 antigen on neutravidin plates, bacterial supernatants, anti-Flag/HRP
T8 construct: also called DRS; Death receptor 5 ECD

[13] = target: T9, biotinylated MCSP antigen (amino acids 1553 to 2184 of matured melanoma-associated chondroitin sulfate … (Homo sapiens (Human), UniProt Q6UVK1 1582-2213, limits assumed, biotin on the C-terminal avi-tag)); assay: ELISA, biotinylated MCSP antigen on neutravidin plates, bacterial supernatants, anti-Flag/HRP
T9 construct: The entry may include the leader; also called recombinant MCSP
T9 sequence: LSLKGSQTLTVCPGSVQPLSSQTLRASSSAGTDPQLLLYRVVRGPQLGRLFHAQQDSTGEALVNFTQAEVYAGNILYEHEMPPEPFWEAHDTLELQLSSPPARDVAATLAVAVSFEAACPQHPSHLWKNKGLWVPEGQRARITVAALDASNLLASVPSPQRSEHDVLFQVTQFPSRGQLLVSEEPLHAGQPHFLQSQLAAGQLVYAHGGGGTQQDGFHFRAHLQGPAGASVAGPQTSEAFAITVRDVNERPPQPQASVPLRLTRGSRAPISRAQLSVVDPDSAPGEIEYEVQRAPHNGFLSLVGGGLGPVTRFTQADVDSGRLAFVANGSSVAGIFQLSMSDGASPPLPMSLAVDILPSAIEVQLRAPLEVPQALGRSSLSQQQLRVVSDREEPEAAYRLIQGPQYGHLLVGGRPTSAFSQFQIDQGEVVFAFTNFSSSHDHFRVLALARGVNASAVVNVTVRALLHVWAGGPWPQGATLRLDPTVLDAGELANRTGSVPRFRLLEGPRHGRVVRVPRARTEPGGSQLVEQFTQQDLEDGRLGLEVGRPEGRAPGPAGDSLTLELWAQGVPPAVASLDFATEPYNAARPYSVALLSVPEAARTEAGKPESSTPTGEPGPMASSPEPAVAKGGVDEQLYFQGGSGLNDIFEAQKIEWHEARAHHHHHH

B1: bivalent P21A03 aVH-Fc (Fc fusion)
chain: EVQLVESGGGLVQPGGSLRLSCAASGFNIKDTCIGWVRRAPGKGTELVAEICEDIGYTRYADSVKGRFTISADTSKNTAYLQMNSLRAEDTAVYYCAANEHSVGFNYWGQGTTVTVSSGGGGSGGGGSDKTHTCPPCPAPEAAGGPSVFLFPPKPKDTLMISRTPEVTCVVVDVSHEDPEVKFNWYVDGVEVHNAKTKPREEQYNSTYRVVSVLTVLHQDWLNGKEYKCKVSNKALGAPIEKTISKAKGQPREPQVYTLPPSRDELTKNQVSLTCLVKGFYPSDIAVEWESNGQPENNYKTTPPVLDSDGSFFLYSKLTVDKSRWQQGNVFSCSVMHEALHNHYTQKSLSLSPGK
EC50 of restoration of the NFAT luciferase signal (NFAT Lag3 reporter assay: Lag3+ Jurkat, Raji cells, SED) [1]: 3.31 µg/mL | IC50 for near-complete reduction of luciferase activity (modified NFAT Lag3 reporter assay, Lag3+ Jurkat cells alone) [2]: 0.078 µg/mL | binding result [3]: no binding | EC50 [4]: 0.0401 µg/mL and 0.5 nM | OD max [4]: 1.2 OD | EC50 [5]: 0.0901 µg/mL and 1.2 nM | OD max [5]: 1.8 OD | Percentage of Lag3 positive cells [6]: 20.8% | Percentage of Lag3 positive cells [7]: 52.2% | koff [8]: 1e-05 s⁻¹ | t1/2 [8]: 19.3 h | IC50 [9]: 0.0581 µg/mL and 0.8 nM | % Inhibition [10]: 97.4%

B2: bivalent P9G1 aVH-Fc (Fc fusion)
chain: B1 chain with E53Q, A98G, N99E, H101G, S102A, V103T, G104N, N106K
EC50 of restoration of the NFAT luciferase signal (NFAT Lag3 reporter assay: Lag3+ Jurkat, Raji cells, SED) [1]: 0.65 µg/mL | IC50 for near-complete reduction of luciferase activity (modified NFAT Lag3 reporter assay, Lag3+ Jurkat cells alone) [2]: 0.038 µg/mL | binding result [3]: no binding | EC50 [4]: 0.0173 µg/mL and 0.2 nM | OD max [4]: 1.2 OD | EC50 [5]: 0.0132 µg/mL and 0.2 nM | OD max [5]: 1.9 OD | Percentage of Lag3 positive cells [6]: 24.4% | Percentage of Lag3 positive cells [7]: 54.1% | koff [8]: 2e-05 s⁻¹ | t1/2 [8]: 9.82 h | IC50 [9]: 0.0408 µg/mL and 0.5 nM | % Inhibition [10]: 96.3%

B3: bivalent 19G3 aVH-Fc (Fc fusion)
chain: B1 chain with D31Y, T32Q, E53S, D54Y, I55D, N99E, H101S, S102V, V103E, N106I
binding result [3]: no binding | EC50 [4]: 0.0636 µg/mL and 0.8 nM | OD max [4]: 1.3 OD | EC50 [5]: 0.0342 µg/mL and 0.5 nM | OD max [5]: 1 OD | Percentage of Lag3 positive cells [6]: 17% | Percentage of Lag3 positive cells [7]: 54.3% | LAG3 positive cells (%) [11]: 80.3% | Signal intensity (Geo Mean) [11]: 2560 Geo Mean | koff [8]: 0.00029 s⁻¹ | t1/2 [8]: 0.672 h | IC50 [9]: 0.224 µg/mL and 3 nM | % Inhibition [10]: 91.9%

B4: bivalent P10D1 aVH-Fc (Fc fusion)
chain: B1 chain with N28S, G35A, N99K, H101A, S102G, N106D
EC50 of restoration of the NFAT luciferase signal (NFAT Lag3 reporter assay: Lag3+ Jurkat, Raji cells, SED) [1]: 4.14 µg/mL | IC50 for near-complete reduction of luciferase activity (modified NFAT Lag3 reporter assay, Lag3+ Jurkat cells alone) [2]: 0.104 µg/mL | binding result [3]: no binding | EC50 [4]: 0.029 µg/mL and 0.4 nM | OD max [4]: 1.2 OD | EC50 [5]: 0.113 µg/mL and 1.5 nM | OD max [5]: 0.9 OD | Percentage of Lag3 positive cells [6]: 16.9% | Percentage of Lag3 positive cells [7]: 61.7% | koff [8]: 0.00011 s⁻¹ | t1/2 [8]: 1.7 h | IC50 [9]: 0.0933 µg/mL and 1.2 nM | % Inhibition [10]: 93.4%

B5: SEQ ID NO 22 (VHH)
VHH: EVQLVESGGGLVQPGGSLRLSCAASGFNIKDTYIGWVRRAPGKGEELVARIYPTNGYTRYADSVKGRFTISADTSKNTAYLQMNSLRAEDTAVYYCAKYVRYFDYWGQGTLVTVSS
notes: Tested as bacterial supernatant; the range 21-28 may alternate DNA and protein entries
binding result [12]: binds

B6: SEQ ID NO 24 (VHH)
VHH: EVQLVESGGGLVQPGGSLRLSCAASGFNIKDTYIGWVRRAPGKGEELVARIYPTNGYTRYADSVKGRFTISADTSKNTAYLQMNSLRAEDTAVYYCAKYYPRTYLDFDYWGQGTLVTVSS
notes: as for B5
binding result [12]: binds

B7: SEQ ID NO 59 (VHH)
VHH: EVQLVESGGGLVQPGGSLRLSCAASSFNIKDTYIGWVRRAPGKGTELVADIYCSEGSTRYADSVKGRFTISCDTSKNTAYLQMNSLRAEDTAVYYCAAVSDYVVFYYWGQGTTVTVSS
notes: is one of clones 3, 25, 44, 57.1; also called MCSP-specific aVH
binding result [13]: binds

B8: SEQ ID NO 61 (VHH)
VHH: EVQLVESGGGLVQPGGSLRLSCAASSFNIKDTYIGWVRRAPGKGTELVAGIYCEAGITRYADSVKGRFTISCDTSKNTAYLQMNSLRAEDTAVYYCAGKGIGNYFDYWGQGTTVTVSS
notes: as for B7
binding result [13]: binds

B9: SEQ ID NO 28 (VHH)
VHH: EVQLVESGGGLVQPGGSLRLSCAASGFNIKDTYIGWVRRAPGKGEELVARIYPTNGYTRYADSVKGRFTISADTSKNTAYLQMNSLRAEDTAVYYCAKRSHYSYFDYWGQGTLVTVSS
notes: as for B5
binding result [12]: binds

From patent US20200354457A1 (Hoffmann-La Roche, published 2020)
